Where “and” joins values, the source holds several entries; their conditions need not be identical. Equal values may be shown once. Where no end group is shown, it is not given here.
What was measured:
[1] = tested on: Alexa 488-labeled human plasma FN; assay: Matrix Assembly in vitro Assay (MAA), A488-FN deposition by AH1F fibroblasts; type: cell-based; conditions: 24 hours, viability-normalized fluorescence, n=4, FUD run alongside each conjugate
Procedure: Matrix Assembly Assay: The matrix assembly assay was conducted in the 96-well plate format as described in the art. AH1F human skin fibroblast cells resuspended in 2% fetal bovine serum were added to each well for a density of 60,000 cells per well. A 1 hr incubation period at 37° C. followed to allow cell adhesion and spreading. FUD, PEG-FUD, or PEG-mFUD were added to each well following incubation. Immediately, Alexa Fluor® 488 fluorescence labeled human plasma fibronectin (A488-FN) was then added to each well for a final FN concentration of 11 μg/mL. The cells were then incubated for 24 hours at 37° C. Non-assembled FN was removed from each well by washing with Hank's Balanced Salt Solution (HBSS) containing Ca^2+ and Mg^2+. The well volume was restored to 60 μL with HBSS and a fluorescence reading from the bottom of each well was taken using a Synergy™ H1 (Biotek) plate reader (excitation: 485 nm, Emission: 538 nm). Cell viability was quantified using CellTiter-Glo® cell viability assay using the manufacturer's protocol. A 30 μL aliquot of HBSS was removed from each well and was replaced with 30 μL of the luminescence reagent prepared shortly beforehand. Luminescence was quantified using the same plate reader. The average of fluorescence values of a no A488FN or inhibitor control group were routinely subtracted from the readings of each well and were normalized using each well's corresponding luminescence value. Lastly, the cell viability normalized fluorescence values were expressed as a percentage of the 0 nM drug control group. The final results were processed using Graphpad Prism 7.0 software. IC50 values were extracted using a four-parameter dose-response curve function. Student's t test was used to determine significance of differences among peptides at a given drug concentration.
The PEG-FUD FN fibrillogenesis inhibitory performance was evaluated in vitro using the matrix assembly assay (MAA). The methodology of this assay is depicted in FIG. 8. The MAA quantifies ECM deposition of exogenous AlexaFluor® 488-labeled FN (A488FN) by a confluent monolayer of fibroblasts after an incubation period by measuring fluorescence of deposited FN. In this study, the performance of PEG-FUD peptides was compared to that of FUD and the PEG-mFUD control peptide using the AH1F human foreskin fibroblast cell line.

[2] = Bleomycin model: PEG-FUD organ accumulation (Western blot, ex vivo fluorescence imaging); type: in vivo, mouse; conditions: day 3-13 s.c. injection, bleomycin-injured vs uninjured (NS) lungs
Procedure: Separately, on day three post-bleomycin treatment, another animal set was treated with a single SC dose of PEG-FUD mixed with 25% Cy5-fluorophore labeled PEG-FUD or fully unlabeled PEG-FUD control (12.5 mg/kg). These mice were sacrificed seven days post-bleomycin treatment and their lungs, kidneys and livers imaged ex vivo using the fluorescence protocol on In Vivo Imaging System.
Western blot: Homogenized lung tissue was lysed for protein using 5% SDS/5 M Urea lysing buffer. The lysates were sonicated and boiled for 5 min prior to being subject to electrophoresis on polyacrylamide gels at 400 V for 2 hours and transferred at 100 V for 2.5 hours. Membranes were blotted with in-house made anti-FUD antibody produced in rabbit (0.7 μg/ml suspended in 2% bovine serum albumin) or β-actin housekeeping antibody produced in mouse (Sigma-Aldrich, 2 μg/ml suspended in 2% bovine serum albumin) and corresponding HRP-conjugated secondary antibody (1:3000). Blots were developed using an enhanced chemiluminescence (ECL) reaction (GE) and imaged on GE LAS4000 chemiluminescence imager to obtain images below the saturated threshold. […]
In Vivo Imaging System: Lungs, livers and kidneys of mice treated with bleomycin or NS and a single dose of SC Cy5-PEG-FUD or unlabeled PEG-FUD were imaged using the fluorescence protocol in the In Vivo Imaging System. […]

[3] = UUO kidney ECM fraction, s.c. approximately 12.5 mg/kg daily; extrapolated
Procedure: Unilateral Ureteral Obstruction model. Male C57BL/6 mice were purchased from Envigo (Madison, Wis.) and housed in the Wisconsin Institutes for Medical Research animal facilities at the University of Wisconsin-Madison with ad-libitum access to food and water. Animals were maintained in humidity and temperature-controlled rooms under 12 h light/dark cycles. All work was conducted under protocol M5421, reviewed and approved by the University of Wisconsin-Madison Institutional Animal Care and Use Committee. All efforts were made to minimize suffering. The Unilateral Ureteral Obstruction (UUO) model is a rodent surgical model representing a human equivalent of […]. Obstruction results in marked dilatation of the ureter together with reduced renal blood flow and glomerular filtration. […]
Tissue extraction and immunoblotting: Kidney tissues were fractionated as described in the art. […] Relative quantitation of specific blotted protein was performed by assessing band intensities using Image J and normalizing to bands obtained with rabbit anti-Histone 3 rabbit IgG (CellSignalTechnology, Danves, Mass., USA) or goat anti-GAPDH-HRP conjugated IgG (Genscript, Piscataway, N.J., USA), which were used as loading controls for ECM or lysate fractions, respectively.

Chain of Alexa 488-labeled human plasma FN (P02751 32-608 limits assumed): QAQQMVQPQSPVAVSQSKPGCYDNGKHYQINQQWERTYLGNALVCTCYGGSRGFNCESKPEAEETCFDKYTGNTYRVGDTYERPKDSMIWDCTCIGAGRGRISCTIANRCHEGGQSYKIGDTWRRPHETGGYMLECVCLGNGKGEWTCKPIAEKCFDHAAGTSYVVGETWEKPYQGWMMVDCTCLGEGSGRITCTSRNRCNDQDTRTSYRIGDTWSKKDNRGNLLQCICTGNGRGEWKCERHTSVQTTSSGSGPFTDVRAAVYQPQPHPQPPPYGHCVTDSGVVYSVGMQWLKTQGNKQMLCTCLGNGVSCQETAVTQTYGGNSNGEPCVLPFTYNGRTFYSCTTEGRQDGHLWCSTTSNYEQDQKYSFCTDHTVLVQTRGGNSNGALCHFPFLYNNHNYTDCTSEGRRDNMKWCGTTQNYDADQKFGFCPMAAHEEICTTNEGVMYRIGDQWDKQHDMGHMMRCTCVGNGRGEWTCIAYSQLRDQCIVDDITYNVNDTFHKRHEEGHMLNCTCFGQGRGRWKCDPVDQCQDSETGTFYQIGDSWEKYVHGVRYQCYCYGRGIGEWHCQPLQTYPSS

Substance | IC50 [1] | PEG-FUD accumulation in lungs (Western blot) [2] | PEG-FUD level in kidney [3]
FUD: 49 amino acid FUD peptide, SEQ ID NO: 1, recombinantly expressed, His-tag removed; inhibitor of fibronectin fibrillogenesis (KDQSPLAGESGETEYITEVYGNQQNPVDIDKKLPNETGFSGNMVETEDT; human) [reference compound] | 0.013 µM and 0.026 µM and 0.019 µM |  | 
PEG-FUD: PEGylated FUD prepared as in Example 1, PEG size not stated; approximately 27 kDa by mass spectrometry, likely the 20 kDa conjugate (KDQSPLAGESGETEYITEVYGNQQNPVDIDKKLPNETGFSGNMVETEDT; not fully specified (N-terminus); also: PEG size not given here) |  | striking increase in PEG-FUD accumulation in bleomycin-injured lungs | ~50 ng per mg

From patent US10828372B2, “Compositions and methods for the inhibition of fibrosis” (WISCONSIN ALUMNI RESEARCH FOUNDATION, priority 2017, dated 2020)
